In the nanobody polyreactivity screen of Harvey et al. (2022):

Experiment: yeast display, Sf9 membrane polyspecificity reagent, FACS + sequencing; frameworks hold sequencing errors
Outline: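 Nanobodies from a synthetic yeast display library (Saccharomyces cerevisiae BJ5465), induced 36–48 hours with galactose, were stained 1 hour at 4 °C with 10% biotinylated, detergent-solubilized Sf9 membrane reagent, enriched on streptavidin microbeads, then FACS-sorted. Anti-HA (expression) and streptavidin (reagent binding) fluorescence set low and high (top ~1%) gates. Polyreactivity labels come from the gate of origin. Genes were colony-PCR amplified, MiSeq 2 × 250 sequenced and filtered by CDR length.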

Sequence: QVQLVESGGGLVQAGGSLRLSCAASGYIFALNAMGWYRQAPGKERELVASITGAGSTNYADSVKGRFTISRDNAKNTVYLQMNSLKPEDTAVYYCAKRTRRRGYYYWGQGTQVTVSS
- polyreactivity (PSR sort gate): high polyreactivity

Sequence: QVQLVESGGGLVQAGGSLLLRCAASGRTFKNYAKGWSRQAPGKERELVAAISSGGGRTKYADSEKGRFTISRDNAKNSVYLQLNSLKPDDTAVYYCAAAFYYRDDYWGQGSQVTVSS
- polyreactivity (PSR sort gate): high polyreactivity

Sequence: QVQLVESGGGLVQAGGSLRLSCASSGITFAKNAMGRYRQAPGKERELVAVITNTNYADSVKGRFTISRDNAKNTVYLQMNSLKPEDTAVYYCAVDGYGWYFARSWLRYYYWGQGTQVTVSS
- polyreactivity (PSR sort gate): low polyreactivity

Sequence: QVQLVESGGGLVQAGGSLRLSCAASGSIFWINAMGWCRQAPGKEREFVADIDVSGGSTYYADSVKGRFTISRDNAKNTVYLQMNSLKPEDTAVYYCAADDYWAYLYYKTSEYYYWGQGTQVTVSS
- polyreactivity (PSR sort gate): low polyreactivity

Sequence: QVQLVESGGGLVQAGGSLRLSCAASGYTFSHYAMGWYRQAPGKERELVAGITWSGGSTYYADSVKGRFTISRDYAKNTVYLQMNSLKPEDTSVYYCAAKYYWYYSYSGIPLFDYWGQGTQVTVSS
- polyreactivity (PSR sort gate): low polyreactivity

Sequence: QVQLVESGGGLVQAGGSLRLSCAASGGTLRRYAMGWYRQAPGKERELVAGITSGGSTDYADSVKGRFTISRDNAKNTVYLQMNSLKPEDTAVYYCAALVYRPTYGYIFDYWGQGTQVTVSS
- polyreactivity (PSR sort gate): high polyreactivity

Sequence: QVQLVESGGGLVQAGGSLRLSCAASGSIFFLYAMGWYRQAPGKERELVAAISVGGGSTYYADSVKGRFTFSRDNAKNTVYLHMNSLKPEDTAVYYCAALSKTRGGYWGQGTQVTVSS
- polyreactivity (PSR sort gate): high polyreactivity

Sequence: QGQLEESGGGLVQAGGSLRLSCPASGYILGGNAMGWYRQAPGKERELVARIRVSSGSTYADSVKGRFTISRDNAKNTVYLQMNSLKPEDTAVYYCAASISSRYRYTAYDYWGQGTQVTVSS
- polyreactivity (PSR sort gate): high polyreactivity

Sequence: QVQLVESGGGLVQAGGSLRLSCAASGFIFSRNALGWYRQAPGKERELVAVISTRGGSTYYADSVKGRFTISRDNAKNTVYLQMNSLKPEDTAVYYCAARRTRGYEYWGQGTQVTVSS
- polyreactivity (PSR sort gate): high polyreactivity

Sequence: QVQLVESGGGLVQAGGSLRLSCAASGLTFWNNAMGWYRQAPGKERELVARINNGDNTYYADSVKGRFTISRDNAKNTVYLQMNSLKPEDTAVYYCAAKRYSNIPWIHDISTFYYWGQGTQVTVSS
- polyreactivity (PSR sort gate): low polyreactivity

Sequence: QLQLVESGGGLVQAGGSLRLSCAYYGFIFYWNAMGWYRHAPGKESQFVATITWSGGSTYYADSVTGRFTISRDNAKNTVYLQMNSLKPEDTAVYSCAVSYLSTLGRSRSDYWGQGTQVTVSS
- polyreactivity (PSR sort gate): low polyreactivity

Sequence: QVQLVESGGGLVQAGGSLRLSCAASGITFYRYAMGWYRPAPGKERELVAAISSSGGSTYYADSVKGRFTISRDNAKNSVYLQMNRLKPEDTAVYYCNAVVQNPQEYDYWGQGTQVTVSS
- polyreactivity (PSR sort gate): high polyreactivity

Sequence: QVQLVESGGGLVQAGGSLRLSCAASGIIFYSYAMGWYRQAPGKERELVAAISRSSGRTYYADSVKGRFTISRDNAKNTVYLQMNSLKPEDTAVYYCATDYYYYPWEYDYWGQGTQVTVSS
- polyreactivity (PSR sort gate): high polyreactivity

Sequence: QVQLVESGGGLVQAGGSLRLSCAASGSTFTGYAMGWYRQAPGKERELVAAISISGGRTFYADSVKGRFTISRDNAKNTVYLQKNSLKPEDTAVSYCAASLRGSKYSFDYWGQGTQVTVSS
- polyreactivity (PSR sort gate): high polyreactivity

Sequence: QVQLVESGGSLVQAGGSLRLSCAASGSTFTKYVMGWYRQAPGKERELVAAISQSGTRTYYADSVKGRFTISRDNAKNTVYLQMNSLKPEDTAVYYCNKPVRNGSYHNRYNYWGQGTQVTVSS
- polyreactivity (PSR sort gate): high polyreactivity

Sequence: QVQLVESGGGLVQAGGSLRLSCSASGYIFSSNTMGWYRQAPGTERELVAGISGRTGRTYYADSVKGRFTISRDNAKNTVYLQMNSLKPEDTAVYYCARVPYQGYPRRRLSGYYYWGQGTQVTVSS
- polyreactivity (PSR sort gate): high polyreactivity

Sequence: QVQLVESGGGLVQAGGSLRLSCAASGFTFARNGMGWYRQATVKEREFVAAITRSGGRTYYADSVKGRFTISRDNAKNTVYLQMNSLKPEDTAVYYCAAATSYGKSEYDYWGQGTQVTVSS
- polyreactivity (PSR sort gate): high polyreactivity

Sequence: QVQLVESGGGLVQAGGSLRLSCAATGIIFGHYAMGWYRQAPGKERELVAAITSGGRTYYADSVKGRFTISRDNAKNTVYLQMNSLKPEDTAVYYCNVDQGYQGYLRIFDYWGQGTQVTVSS
- polyreactivity (PSR sort gate): low polyreactivity

Sequence: QVQLVESGGGLVQAGGSLRLSCAASGYTFSVNALGWYRQAPGKERELVATINSSGGGTYYADSVKGRFTISRDNAKYTVYLQMNSLKPEDTAVFYCAADGYWYGDIYPSDYRWYDYWGQGTQVTVSS
- polyreactivity (PSR sort gate): low polyreactivity

Sequence: QVQLVESGGGLVQAGGSLRLSCAASGRIFKDTAMGWYRQAPGKDRELVAGITSIGDNTYYADSVKGRFTISRDNAKNTVYLQMHSLKPEDSAVYDCNALYPYVNGTVPRTTGEYDYWGQGTQVTVSS
- polyreactivity (PSR sort gate): low polyreactivity

Sequence: QVQLVESGGGLVQAGGSLRLSCAASGIISRVYAMGWYRQAPGKERELVAAISGSGGTTYYADSVKGRFTISRDNAKNTVYLQMNSLKPEDTAVYYCAARYKALYDYWGQGTQVTVSS
- polyreactivity (PSR sort gate): high polyreactivity

Sequence: QVHLVESGGGLVQAGGSLRLSCAASGSTFYPYAMGWYRQAPGKEREVVAGISRSGGTTYYADSVKGRFTISRDNANNTVYLQMNSLKPEDTAVYYCAVQIPYVYWSYDYWGQGTQVTVSS
- polyreactivity (PSR sort gate): low polyreactivity

Sequence: QVQLVESGGGLVQAGGSLRLSSAASGRIFNGNAMGWSRQSPGKERELVAAISSGGRTYYADSVKGRFTISRDNAKNTVYLQMNSLKPEDTEVYYCAARVILTTYSRNYYYWGQGTQVTVSS
- polyreactivity (PSR sort gate): high polyreactivity

Sequence: QDQIVDSRGVLVQEGGSLGLSCAASGLTIYSYAMGFSRQAPRKERELVATITNGDTTTYAETVKARFTISRDNAKNNVIFQFNILKPEDTAVYYCAQHISPGYDEYDYWGQGTQVTVSS
- polyreactivity (PSR sort gate): low polyreactivity

Sequence: QGQLVESGGGLVQAGGSLRLSSAASGSTFVGNAMGWYRQAPGKEREMVATISNSGGRTYYADSVKGRFTISRDNAKNTVYLQMTSLKPEDTAVYDCAADHPAFGPGYSFDYWGQGTQVTLSS
- polyreactivity (PSR sort gate): low polyreactivity

Sequence: QVQLVESGGGLVQAGGSLRLSCAASGSTFWWYAMGWYRQAPGKERELVAAISYSGSSTYYADSVKGRFTISRDNAKNTVYLQMNSLKPEDTAVYYCAADIQYYYNFYPGDYWGQGTQVTVSS
- polyreactivity (PSR sort gate): low polyreactivity

Sequence: QVQLVESGGGLVQAGGSLRLSCAASGRTFHVYAMGWYRQAPGKERELVATITDGSTNYADSVKGRFTISRDNAKNTVYLQMNRLKPEDNAVYYCATVRDWIPSGDYEYWGQCTQVTVSS
- polyreactivity (PSR sort gate): low polyreactivity

Sequence: QVQIVESGGGIVQAGGSLRLSCAASGLTFHQYTMGWYRQAPGKERELVAAISSGGSTNYADSVKGRFTISRDNAKNTVFLQMNSLKPEDTAVYYCAADKYYFAYDYWGQGTQVNVSS
- polyreactivity (PSR sort gate): low polyreactivity

Sequence: QVQLVESGGGLVQAGGSLRLTCAASGSIFEYNGMGWYRQAPGKERELVAAITTTGTTDYADSVKGRFTISRDNAKNTVYLQMNSLKPEDTAVDYCAAEYTYYYTGEYDYWGQGTQVTVSS
- polyreactivity (PSR sort gate): low polyreactivity

Sequence: QVQLVESGGGLVQAGGSLRLSCAASGRTFARYAMGWYRQAPGKERDLVADITSGGSTNYADSVKGRFTISRDNAKNTVYLQMNSLEPEDTAVYYCAAYVVWSWFEEYEYWGQGTQVTVSS
- polyreactivity (PSR sort gate): high polyreactivity

Sequence: QVQLVESGGGLVQAGGSLRLSCAASGFIFKSNGMGRYRPEPGKERELVSAIRRSGGSTYYADSVKGRFSISRDYAKNTFYLQMNSLKPEVTAVYYCGIRRGVYTHWYDYWGQGTQVTVSS
- polyreactivity (PSR sort gate): high polyreactivity
